Assay results reported in article PMC9719863 (Molecular Metabolism, 2022).
*1 amine or outer side, *2 acyl side, *3 side chain or, on linkers, in order; H or OH if unused. Where no end group is shown, it is not given here. Side-chain parts run from the residue outwards. The star is where a group is joined. C18 diacid = O=C(O)CCCCCCCCCCCCCCCCC(=O)*; γGlu = O=C(O)[C@H](CCC(=O)[*:2])N[*:1]; Palmitoyl = CCCCCCCCCCCCCCCC(=O)*; AEEA = NCCOCCOCC(=O)O

B1: [L14, R18, E21] hGIP(3-30)-K11 (γE-C16) (peptide)
peptide: EGTFISDYK([γGlu-Palmitoyl])IALDKIRQQEFVNWLLAQK-NH2
modifications: N-terminus assumed
SMILES: CCCCCCCCCCCCCCCC(=O)N[C@@H](CCC(=O)NCCCC[C@H](NC(=O)[C@H](Cc1ccc(O)cc1)NC(=O)[C@H](CC(=O)O)NC(=O)[C@H](CO)NC(=O)[C@@H](NC(=O)[C@H](Cc1ccccc1)NC(=O)[C@@H](NC(=O)CNC(=O)[C@@H](N)CCC(=O)O)[C@@H](C)O)[C@@H](C)CC)C(=O)N[C@H](C(=O)N[C@@H](C)C(=O)N[C@@H](CC(C)C)C(=O)N[C@@H](CC(=O)O)C(=O)N[C@@H](CCCCN)C(=O)N[C@H](C(=O)N[C@@H](CCCNC(=N)N)C(=O)N[C@@H](CCC(N)=O)C(=O)N[C@@H](CCC(N)=O)C(=O)N[C@@H](CCC(=O)O)C(=O)N[C@@H](Cc1ccccc1)C(=O)N[C@H](C(=O)N[C@@H](CC(N)=O)C(=O)N[C@@H](Cc1c[nH]c2ccccc12)C(=O)N[C@@H](CC(C)C)C(=O)N[C@@H](CC(C)C)C(=O)N[C@@H](C)C(=O)N[C@@H](CCC(N)=O)C(=O)N[C@@H](CCCCN)C(N)=O)C(C)C)[C@@H](C)CC)[C@@H](C)CC)C(=O)O

Columns and labels:
human GIP receptor [1] = target: T1, human GIP receptor (human, UniProt P48546 22-466); test: cell-based or functional assay
T1 sequence: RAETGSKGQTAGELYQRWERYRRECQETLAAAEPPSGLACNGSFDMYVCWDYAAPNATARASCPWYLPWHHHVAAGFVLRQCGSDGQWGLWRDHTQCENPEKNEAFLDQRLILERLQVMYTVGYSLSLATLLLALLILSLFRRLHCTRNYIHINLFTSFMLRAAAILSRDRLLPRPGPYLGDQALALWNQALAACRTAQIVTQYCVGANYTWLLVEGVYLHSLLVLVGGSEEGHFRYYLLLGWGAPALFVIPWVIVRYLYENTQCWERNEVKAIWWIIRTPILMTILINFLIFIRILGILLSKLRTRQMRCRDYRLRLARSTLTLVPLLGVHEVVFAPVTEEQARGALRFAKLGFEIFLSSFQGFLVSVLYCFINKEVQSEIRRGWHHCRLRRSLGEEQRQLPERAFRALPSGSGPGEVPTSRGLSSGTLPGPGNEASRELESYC

mouse GIP receptor [2] = target: T2, mouse GIP receptor (mouse, UniProt Q0P543 19-460); test: cell-based or functional assay
T2 sequence: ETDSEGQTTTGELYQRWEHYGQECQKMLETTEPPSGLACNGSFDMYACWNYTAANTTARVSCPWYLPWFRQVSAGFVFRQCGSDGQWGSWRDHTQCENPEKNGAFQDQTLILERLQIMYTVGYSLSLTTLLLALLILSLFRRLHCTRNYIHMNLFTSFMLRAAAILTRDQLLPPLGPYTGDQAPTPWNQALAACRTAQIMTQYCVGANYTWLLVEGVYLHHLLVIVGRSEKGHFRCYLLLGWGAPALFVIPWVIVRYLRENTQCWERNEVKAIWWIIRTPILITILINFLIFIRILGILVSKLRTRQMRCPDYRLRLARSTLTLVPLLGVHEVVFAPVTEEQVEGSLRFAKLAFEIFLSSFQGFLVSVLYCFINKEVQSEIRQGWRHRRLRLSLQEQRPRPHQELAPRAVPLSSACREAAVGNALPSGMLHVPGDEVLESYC

human GIP receptor [3] = target: T1, human GIP receptor; test: radioligand binding
mouse GIP receptor [4] = target: T2, mouse GIP receptor; test: radioligand binding
[5] = target: T3, human GIP receptor (human) (UniProt P48546)
T3 sequence: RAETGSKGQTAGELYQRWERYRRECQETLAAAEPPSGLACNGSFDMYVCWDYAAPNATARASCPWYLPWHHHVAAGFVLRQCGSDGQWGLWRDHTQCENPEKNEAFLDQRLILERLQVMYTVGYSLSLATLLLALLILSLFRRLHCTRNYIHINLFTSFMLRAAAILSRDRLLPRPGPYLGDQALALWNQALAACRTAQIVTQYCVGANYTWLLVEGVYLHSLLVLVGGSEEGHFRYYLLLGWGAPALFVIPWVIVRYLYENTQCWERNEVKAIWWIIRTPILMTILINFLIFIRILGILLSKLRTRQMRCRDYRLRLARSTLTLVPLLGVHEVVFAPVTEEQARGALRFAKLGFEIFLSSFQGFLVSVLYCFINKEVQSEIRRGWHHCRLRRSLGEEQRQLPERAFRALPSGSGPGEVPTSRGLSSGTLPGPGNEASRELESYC

[6] = target: T4, mouse GIP receptor (mouse) (UniProt Q0P543)
T4 sequence: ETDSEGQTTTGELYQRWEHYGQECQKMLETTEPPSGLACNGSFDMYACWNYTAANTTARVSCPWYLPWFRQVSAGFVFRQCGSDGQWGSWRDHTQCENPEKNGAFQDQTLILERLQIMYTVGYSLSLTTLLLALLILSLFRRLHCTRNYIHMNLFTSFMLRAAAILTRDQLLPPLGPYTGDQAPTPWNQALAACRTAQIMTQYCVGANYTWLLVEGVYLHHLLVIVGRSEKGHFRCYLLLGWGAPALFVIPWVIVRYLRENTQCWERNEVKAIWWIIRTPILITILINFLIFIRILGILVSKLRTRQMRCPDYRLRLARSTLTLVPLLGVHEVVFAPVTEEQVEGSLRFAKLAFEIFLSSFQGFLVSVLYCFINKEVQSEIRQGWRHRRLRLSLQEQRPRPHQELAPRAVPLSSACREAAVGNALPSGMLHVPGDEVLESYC

Binder	maximal % inhibition of GIP-induced cAMP in BHK cells expressing hGIPR (human GIP receptor [1]) [%]	maximal % inhibition of GIP-induced cAMP in BHK cells expressing mGIPR (mouse GIP receptor [2]) [%]	IC50 (human GIP receptor [3]) [nM]	IC50 (mouse GIP receptor [4]) [nM]	maximal % inhibition of GIP-induced cAMP in BHK cells expressing hGIPR [5] [%]	maximal % inhibition of GIP-induced cAMP in BHK cells expressing mGIPR [6] [%]
Ac-TFISDK([γGlu-Palmitoyl])SIALDKIRQQEFVNWLLAQKG [[Nα-Ac, L14, R18, E21] hGIP(5-31)-K10 (γE-C16)]	100	100	0.21	1	–	–
TFISDYSIALDKIRQQEFVNWLLAQKG [[L14, R18, E21] hGIP(5-31)]	81	93	1.8	18.7	–	–
FISDYSIALDKIRQQEFVNWLLAQKG [[L14, R18, E21] hGIP(6-31)]	83	91	6.45	37.1	–	–
Ac-TFISDYK([AEEA-AEEA-γGlu-C18 diacid])IALDKIRQQEFVNWLLAQKG [[Nα-Ac, L14, R18, E21] hGIP(5-31)-K11(OEG2-γE-C18-OH)]	100	100	3.83	24.8	–	–
EGTFISDYSIAMDKIHQQDFVNWLLAQK-NH2 [hGIP(3-30) amide]	81	73	1.55	–	–	–
EGTFISDYSIALDKIRQQEFVNWLLAQK-NH2 [[L14, R18, E21] hGIP(3-30) amide]	–	–	–	–	72	86
B1	100	97	0.36	2.1	–	–
Ac-TFISDYK([AEEA-AEEA-C18 diacid])IALDKIRQQEFVNWLLAQKG [[Nα-Ac, L14, R18, E21] hGIP(5-31)-K11(OEG2-C18-OH)]	100	100	2.49	8.7	–	–
Ac-TFISDYK(C18 diacid)IALDKIRQQEFVNWLLAQKG [[Nα-Ac, L14, R18, E21] hGIP(5-31)-K11 (-C18-OH)]	100	100	0.9	5.4	–	–
